Test results taken from patent US20150299285A1 (INDIANA UNIVERSITY RESEARCH AND TECHNOLOGY, published 2015).
Several values for one entry are separate records, joined by “and”; a condition that tells them apart may be missing. Equal entries are not always repeated. Where two headings read alike, the source gives them in different places. Bridges are numbered along the chain shown (N, C = ends). Roman numbers before positions name the chains, in order. Where no end group is shown, it is not given here. [ ]: non-standard residue; d: D form. Phe(4-NH2) = Nc1ccc(C[C@H](N)C(=O)O)cc1

Columns and labels:
human IGF-1 receptor [1] = target: T1, human IGF-1 receptor (human, UniProt P08069 31-1367); assay: cell-based or functional assay
human insulin receptor [2] = target: T2, human insulin receptor (human, UniProt P06213 28-1382); assay: competition with 125I-insulin, receptor membranes, SPA
T2 construct: whole, on cells

human insulin receptor [3] = target: T2, human insulin receptor; assay: as above; remark: listed apart in the source
human IGF-1 receptor [4] = target: T1, human IGF-1 receptor; assay: cell-based or functional assay; remark: listed apart in the source
human insulin receptor [5] = target: T2, human insulin receptor; assay: cell-based or functional assay
human IGF-1 receptor [6] = target: T1, human IGF-1 receptor; assay: cell-based or functional assay; remark: listed apart in the source
human IGF-1 receptor [7] = target: T1, human IGF-1 receptor; assay: competition with 125I-IGF-1, receptor membranes, SPA
human insulin receptor [8] = target: T2, human insulin receptor; assay: competition with 125I-insulin, receptor membranes, SPA; remark: listed apart in the source
human insulin receptor [9] = target: T2, human insulin receptor; assay: as above; remark: listed apart in the source

Row | Binder | IC50 (human insulin receptor [3]) | IC50 (human IGF-1 receptor [7]) | % IGF-1 (in test) (human IGF-1 receptor [7]) | % native IGF-1 activity (0.55 nM) (human IGF-1 receptor [7]) | further results
1 | MIU-35: B^1(H5, H10, Y16, L17)25-C^1-A^1 (H8, N18, N21) (ligand) GPEHLCGAHLVDALYLVCGDRGFYGYGSSSRRAPQTGIVDECCHRSCDLRRLENYCN |  |  |  |  | % Insulin Activity (in vitro; assay not stated) (human IGF-1 receptor [1]): 3.2%
2 | MIU-69: B0, A14-PEG10K di-PEGylated B^1(H5,Y16,L17)25-C^1(K8)-A^1(K14, N18,21) (ligand, disulfide 18-56, 42-47, 6-43) {PEG 10 kDa}-GPEHLCGAELVDALYLVCGDRGFYGYGSSSRKAPQTGIVDECCFRSCDLK(PEG 10 kDa)RLENYCN |  |  |  |  | % Insulin Activity (in vitro; assay not stated) (human IGF-1 receptor [1]): < 0.1%
3 | MIU-68: B0, B22-PEG10K di-PEGylated B^1(H5,Y16,L17, K22)25-C^1(K8)-A^1(N18,21) (ligand, disulfide 18-56, 42-47, 6-43) {PEG 10 kDa}-GPEHLCGAELVDALYLVCGDK(PEG 10 kDa)GFYGYGSSSRKAPQTGIVDECCFRSCDLRRLENYCN |  |  |  |  | % Insulin Activity (in vitro; assay not stated) (human IGF-1 receptor [1]): < 0.1%
4 | MIU-58: B1-PEG20K-B1- Dimer (ligand, disulfide 18-56, 42-47, 6-43; also: dimer: two chains linked head to head via 20 kDa PEG) {PEG 20 kDa}-GPEHLCGAELVDALYLVCGDRGFYGYGSSSRRAPQTGIVDECCFRSCDLRRLENYCN |  |  |  |  | % Insulin Activity (in vitro; assay not stated) (human IGF-1 receptor [1]): 2.6%
5 | IGF1(Y^B16L^B17) (ligand, Two chain heteroduplex; may be the same molecule as m22; also called IGF1 (Y^B16L^B17) analog; IGF1 A:B(Y^B16L^B17)) chain 1: GIVDECCFRSCDLRRLEMYCA chain 2: GPETLCGAELVDALYLVCGDRGFYFNKPT |  |  |  |  | IC50 (human insulin receptor [2]): 0.51 nM
6 | IGF-1 A:B (ligand, disulfide I:6-I:11, I:20-II:18, I:7-II:6, also called IGF-1 A and B chain heteroduplex) chain 1: GIVDECCFRSCDLRRLEMYCA-NH2 chain 2: GPETLCGAELVDALQFVCGDRGFYFNKPT-NH2 | 10.4 nM |  |  |  | % insulin (in test) (human insulin receptor [3]): 5.8%; % native insulin activity (0.6 nM) (human insulin receptor [3]): 5.8%
7 | DP20 Lys C (two chain form of DP20) (ligand) chain 1: GPEHLCGAHLVDALYLVCGDRGFYSSSSRAPPPSLPSPSRLPGPSDTPILPQK chain 2: GIVDECCHRSCDLRRLENYCN |  |  |  |  | EC50, phosphorylation (FIG. 18C) (human IGF-1 receptor [4]): 8.23 nM
8 | MIU-57: B1-PEG20K B^1(H5,Y16,L17)25-C^1-A^1(N18,21) (ligand, disulfide 18-56, 42-47, 6-43) {PEG 20 kDa}-GPEHLCGAELVDALYLVCGDRGFYGYGSSSRRAPQTGIVDECCFRSCDLRRLENYCN |  |  |  |  | % Insulin Activity (in vitro; assay not stated) (human IGF-1 receptor [1]): 1.2%
9 | DP20: GE5K-B chain-CTP(K)-A Chain (ligand) GEEEEEKGPEHLCGAHLVDALYLVCGDRGFYSSSSRAPPPSLPSPSRLPGPSDTPILPQKGIVDECCHRSCDLRRLENYCN |  |  |  |  | EC50, phosphorylation (FIG. 18C) (human IGF-1 receptor [4]): 316 nM
10 | IGF-1 A:B(E10Y16L17) (ligand, disulfide I:6-I:11, I:20-II:18, I:7-II:6; not fully specified (C-terminus)) chain 1: GIVDECCFRSCDLRRLEMYCA chain 2: GPETLCGAELVDALYLVCGDRGFYFNKPT | 0.66 nM and 0.51 nM | 7.85 nM and 12.2 nM |  |  | % Insulin, total phosphorylation (human insulin receptor [5]): 49.2%; % IGF, total phosphorylation (human IGF-1 receptor [6]): 13%
11 | IGF-1 A:IGF-1 B(1-8)-In (9-17)-IGF-1 B(18-30) (ligand, disulfide I:6-I:11, I:20-II:18, I:7-II:6) chain 1: GIVDECCFRSCDLRRLEMYCA-NH2 chain 2: GPETLCGSHLVEALYLVCGDRGFYFNKPT-NH2 | 1.59 nM | 131 nM | 0.3% | 0.4% | % insulin (in test) (human insulin receptor [3]): 19.1%; % native insulin activity (0.6 nM) (human insulin receptor [3]): 37.7%
12 | IGF-1 A:In (1-17)-IGF-1 B (18-30) (ligand, disulfide I:6-I:11, I:20-II:19, I:7-II:7) chain 1: GIVDECCFRSCDLRRLEMYCA-NH2 chain 2: FVNQHLCGSHLVEALYLVCGDRGFYFNKPT-NH2 | 2.77 nM and 2.67 nM and 2.48 nM | 62.5 nM | 0.9% | 0.9% | 
13 | IGF-1 A:In B(1-5)-IGF-1 B(YL)(6-30) (ligand, not fully specified (bridges); cysteine pairing not given here; also: C-terminal amide, chain not given here) chain 1: GIVDECCFRSCDLRRLEMYCA chain 2: FVNQHLCGAELVDALYLVCGDRGFYFNKPT |  | 27.5 nM | 3.6% | 2% | 
14 | DP22LysC (ligand) chain 1: APPPSLPSPSRLPGPSDTPILPQEEEEERGPEHLCGAHLVDALYLVCGDRGFYSSSSRAPPPSLPSPSRLPGPSDTPILPQK chain 2: GIVDECCHRSCDLRRLENYCN |  |  |  |  | EC50, phosphorylation (FIG. 18C) (human IGF-1 receptor [4]): 14.8 nM
15 | IGF-1 A:B(E10 Y16L17)-E31E32 B-COOH (ligand, disulfide I:6-I:11, I:20-II:18, I:7-II:6) chain 1: GIVDECCFRSCDLRRLEMYCA-NH2 chain 2: GPETLCGAELVDALYLVCGDRGFYFNKPTEE-OH |  | 17.5 nM | 3% | 3.1% | 
16 | IGF-1 A:B (H5D10Y16L17) (S=O)DPI (ligand, disulfide I:6-I:11, I:20-II:18, I:7-II:6; also: (S=O), residue not given here, the only Met stands at A18) chain 1: GIVDECCFRSCDLRRLEMYCA-NH2 chain 2: GPEHLCGADLVDALYLVCGDRGFY-NH2 | 0.25 nM |  |  |  | % insulin (in test) (human insulin receptor [3]): 316%
17 | MIU-67: B0, C8-PEG10K di-PEGylated B^1(H5,Y16,L17)25-C^1(K8)-A^1(N18,21) (ligand, disulfide 18-56, 42-47, 6-43) {PEG 10 kDa}-GPEHLCGAELVDALYLVCGDRGFYGYGSSSRK(PEG 10 kDa)APQTGIVDECCFRSCDLRRLENYCN |  |  |  |  | % Insulin Activity (in vitro; assay not stated) (human IGF-1 receptor [1]): < 0.1%
18 | IGF-1 A:B (H5D10Y16L17) DPI (ligand, disulfide I:6-I:11, I:20-II:18, I:7-II:6) chain 1: GIVDECCFRSCDLRRLEMYCA-NH2 chain 2: GPEHLCGADLVDALYLVCGDRGFY-NH2 | 0.16 nM | 4.66 nM | 11.2% | 11.8% | % IGF, total phosphorylation (human IGF-1 receptor [6]): 7.1%; % insulin (in test) (human insulin receptor [3]): 479%
19 | IGF-1 A (H8 A9 N21):B(H5D10Y16L17) DPI A-COOH (ligand, disulfide I:6-I:11, I:20-II:18, I:7-II:6) chain 1: GIVDECCHASCDLRRLEMYCN-OH chain 2: GPEHLCGADLVDALYLVCGDRGFY-NH2 | 0.05 nM and 0.09 nM | 4.03 nM | 12.9% | 13.6% | % IGF, total phosphorylation (human IGF-1 receptor [6]): 181%
20 | IGF-1 A:B(D10Y16L17) DPI A-COOH (ligand, disulfide I:6-I:11, I:20-II:18, I:7-II:6) chain 1: GIVDECCFRSCDLRRLEMYCA-OH chain 2: GPETLCGADLVDALYLVCGDRGFY-NH2 | 0.2 nM and 0.42 nM and 0.26 nM | 6.79 nM | 7.7% | 8.1% | % Insulin, total phosphorylation (human insulin receptor [5]): 1580%; % IGF, total phosphorylation (human IGF-1 receptor [6]): 112%
21 | IGF-1 A:B (E10Y16L17) DPI (ligand, disulfide I:6-I:11, I:20-II:18, I:7-II:6) chain 1: GIVDECCFRSCDLRRLEMYCA-NH2 chain 2: GPETLCGAELVDALYLVCGDRGFY-NH2 |  | 22.9 nM | 3.3% | 2.4% | 
22 | IGF-1 A (H8 A9 N21):B(H5D10Y16L17 A22) DPI A-COOH (ligand) chain 1: GIVDECCHASCDLRRLEMYCN chain 2: GPEHLCGADLVDALYLVCGDAGFY | 0.12 nM | 22.8 nM | 2.3% | 2.4% | % IGF, total phosphorylation (human IGF-1 receptor [6]): 7.7%
23 | DP22: CTP-E5R-B chain-CTP(K)-A Chain (ligand) MGSSSSKAPPPSLPSPSRLPGPSDTPILPQEEEEERGPEHLCGAHLVDALYLVCGDRGFYSSSSRAPPPSLPSPSRLPGPSDTPILPQKGIVDECCHRSCDLRRLENYCN |  |  |  |  | EC50, phosphorylation (FIG. 18C) (human IGF-1 receptor [4]): 83.1 nM
24 | IGF1(Y^B16L^B17)(p-NH2-F)^A19amide (ligand, disulfide I:6-I:11, I:20-II:18, I:7-II:6; not fully specified (C-terminus); also: amide in name, site not given here, also called IGF1 A:B(Y^B16L^B17)(p-NH2-F)^A19amide; IGF1 (Y^B16L^B17) A(p-NH2-F)^19) chain 1: GIVDECCFRSCDLRRLEM[Phe(4-NH2)]CA chain 2: GPETLCGAELVDALYLVCGDRGFYFNKPT |  |  |  |  | IC50 (human insulin receptor [8]): 1.08 nM
25 | IGF-2 AB(YL) (ligand, C-terminal amide) chain 1: not shown chain 2: AYRPSETLCGGELVDTLYLVCGDRGFYFSRPA | 6.81 nM |  |  |  | 
26 | IGF1(Y^B16L^B17)(AlaPro)^A-1,0 (ligand) chain 1: APGIVDECCFRSCDLRRLEMYCA chain 2: GPETLCGAELVDALYLVCGDRGFYFNKPT |  |  |  |  | IC50 (human insulin receptor [9]): 1.93 nM
